± gives the uncertainty stated by the source.
B1: Metastasis-associated protein MTA3, residues 265 to 317; numbered along this chain, Q9BTC8 (parent)
chain: RDEMEEWSASEASLFEEALEKYGKDFNDIRQDFLPWKSLTSIIEYYYMWKTTD

Variants of: B1
Test: abundance fitness (aPCA) (normalised: wild type 0, dead -1); higher = more abundant; growth selection in yeast, the domain comes from the species named
Conditions: Homo sapiens

Abundance fitness, by site and new letter:
S8: Y 0.086 ± 0.14 | C -0.9 ± 0.18 | G -0.571 ± 0.12 | T 0.018 ± 0.1 | I -0.518 ± 0.17 | P -0.884 ± 0.14 | Q -0.749 ± 0.28 | K -0.696 ± 0.18 | V -0.949 ± 0.15 | A -0.715 ± 0.18 | R -0.93 ± 0.12 | F -0.935 ± 0.23 | D -0.587 ± 0.12 | H -0.696 ± 0.13 | M -0.771 ± 0.17 | L -0.889 ± 0.12 | W -0.303 ± 0.16
E11: K -0.562 ± 0.11 | T -0.567 ± 0.081 | I -1.1 ± 0.22 | Y -0.788 ± 0.19 | Q -0.811 ± 0.11 | M 0.052 ± 0.11 | N -0.91 ± 0.2 | R -0.92 ± 0.13 | W -0.78 ± 0.1 | G -0.68 ± 0.15 | C -0.818 ± 0.21 | H -0.175 ± 0.12 | F -0.87 ± 0.087 | A -0.623 ± 0.092 | D 0.386 ± 0.078 | L -0.713 ± 0.088 | P -1.04 ± 0.19 | S -0.883 ± 0.11 | V -0.7 ± 0.12
M4: D -0.554 ± 0.21 | Q -0.885 ± 0.35 | V -0.422 ± 0.19 | T -0.481 ± 0.18 | C -0.307 ± 0.15 | H 0.156 ± 0.27 | E -0.351 ± 0.29 | G -0.947 ± 0.2 | Y -0.797 ± 0.41 | R -0.039 ± 0.15 | I -0.211 ± 0.3 | W -0.666 ± 0.37 | K -0.647 ± 0.31 | S -0.273 ± 0.19
W7: N -0.697 ± 0.18 | L -0.71 ± 0.099 | S -0.777 ± 0.11 | E -0.925 ± 0.33 | A -0.51 ± 0.12 | M -1 ± 0.36 | T -0.884 ± 0.15 | D -0.814 ± 0.28 | H -0.909 ± 0.14 | Q -1.03 ± 0.25 | K -0.549 ± 0.17 | V -0.979 ± 0.14 | R -0.715 ± 0.15 | F -0.681 ± 0.26 | Y -0.496 ± 0.19 | C -0.952 ± 0.13 | G -0.427 ± 0.16
S10: T -0.091 ± 0.08 | Y -0.158 ± 0.083 | A -0.154 ± 0.087 | H -0.139 ± 0.13 | N -0.005 ± 0.14 | G -0.275 ± 0.092 | P -0.743 ± 0.1 | R -0.156 ± 0.072 | M -0.152 ± 0.1 | K 0.219 ± 0.1 | E -0.012 ± 0.1 | W 0.031 ± 0.084 | F -0.216 ± 0.13 | Q -0.252 ± 0.11 | L -0.038 ± 0.063 | I -0.462 ± 0.2
F15: E -0.695 ± 0.24 | R -0.485 ± 0.1 | W -1.02 ± 0.24 | L -0.697 ± 0.12 | Q -0.217 ± 0.17 | M -0.528 ± 0.087 | S -0.543 ± 0.089 | P -0.918 ± 0.22 | G -0.788 ± 0.14 | N -0.969 ± 0.21 | A -0.861 ± 0.15 | T -0.851 ± 0.14 | V -0.316 ± 0.11 | D -0.578 ± 0.25 | Y -1.15 ± 0.32 | K -0.86 ± 0.11 | H 0.397 ± 0.13 | I -0.836 ± 0.16
Y22: P -0.707 ± 0.17 | L -0.536 ± 0.12 | M -0.792 ± 0.11 | E -0.856 ± 0.31 | H -0.079 ± 0.093 | Q -0.921 ± 0.18 | N -0.712 ± 0.22 | A -0.687 ± 0.18 | K -0.72 ± 0.17 | T -0.599 ± 0.15 | G -0.625 ± 0.15 | R -0.2 ± 0.079 | I 0.078 ± 0.26 | C 0.26 ± 0.091 | S -0.53 ± 0.088 | D -1.07 ± 0.36 | V 0.068 ± 0.16
A12: Y -0.768 ± 0.15 | G -0.618 ± 0.098 | V 0.076 ± 0.096 | D -0.875 ± 0.19 | K 0.358 ± 0.077 | S -0.436 ± 0.1 | N -0.15 ± 0.093 | W -0.816 ± 0.21 | M 0.068 ± 0.12 | H -0.041 ± 0.11 | R 0.22 ± 0.067 | I -0.117 ± 0.17 | F -0.941 ± 0.27 | T -0.238 ± 0.085 | Q 0.215 ± 0.11 | P -0.805 ± 0.15 | L -0.473 ± 0.069 | C -0.273 ± 0.099 | E -0.471 ± 0.21
A9: G -0.714 ± 0.19 | C -0.564 ± 0.1 | S -0.331 ± 0.078 | Y -0.916 ± 0.17 | N -0.677 ± 0.16 | R -0.356 ± 0.072 | L -0.5 ± 0.11 | W -0.527 ± 0.14 | E -0.042 ± 0.12 | T -0.332 ± 0.09 | I -0.335 ± 0.2 | M -0.909 ± 0.25 | V -0.359 ± 0.086 | P -0.29 ± 0.085 | K -0.505 ± 0.097 | F -0.726 ± 0.26
L14: K -0.168 ± 0.17 | R -0.602 ± 0.082 | N -0.639 ± 0.17 | W -0.956 ± 0.18 | Q -0.68 ± 0.15 | P -0.872 ± 0.2 | E -1 ± 0.25 | F -0.842 ± 0.11 | H -0.945 ± 0.17 | M -0.688 ± 0.21 | Y -0.353 ± 0.17 | V -0.686 ± 0.12 | D -0.723 ± 0.099 | A -0.396 ± 0.087 | G -0.866 ± 0.12 | I -0.444 ± 0.11
E5: R -0.341 ± 0.09 | D -0.341 ± 0.37 | C -0.341 ± 0.32 | M -0.209 ± 0.11 | H -0.636 ± 0.37 | N -0.09 ± 0.25 | Y -0.042 ± 0.47 | A 0.173 ± 0.22 | S -0.107 ± 0.12 | T -0.697 ± 0.34 | L -0.423 ± 0.076 | W -0.639 ± 0.24 | Q -0.347 ± 0.46 | I -0.196 ± 0.26 | K -0.031 ± 0.16 | V -0.719 ± 0.26
A18: W -0.817 ± 0.11 | G 0.438 ± 0.098 | Q -0.542 ± 0.13 | T -1 ± 0.17 | H -0.873 ± 0.14 | F -0.902 ± 0.17 | Y -0.703 ± 0.19 | L -0.627 ± 0.083 | S -0.988 ± 0.14 | N -0.863 ± 0.24 | R -0.913 ± 0.11 | M -0.643 ± 0.14 | C -0.32 ± 0.1 | D -1.2 ± 0.39 | E -0.439 ± 0.27 | V -0.443 ± 0.15 | P -0.912 ± 0.14 | K -0.554 ± 0.23
E6: R -0.226 ± 0.13 | L -0.757 ± 0.24 | V 0.443 ± 0.2 | W -0.862 ± 0.15 | K 0.096 ± 0.28 | H 0.415 ± 0.24 | A 0.228 ± 0.19 | P -0.384 ± 0.27 | D -0.443 ± 0.32 | M 0.08 ± 0.33 | F -0.159 ± 0.37 | S -0.289 ± 0.19 | G -0.302 ± 0.13 | T -0.267 ± 0.4
S13: E 0.158 ± 0.11 | L -0.045 ± 0.08 | H -0.242 ± 0.13 | N -0.261 ± 0.17 | F -0.436 ± 0.16 | I -0.527 ± 0.23 | V 0.066 ± 0.09 | M 0.128 ± 0.093 | Y -0.631 ± 0.14 | C -0.134 ± 0.14 | T -0.212 ± 0.1 | W -0.689 ± 0.18 | K 0.502 ± 0.1 | G -0.015 ± 0.082 | D -0.326 ± 0.22
L19: A -0.67 ± 0.12 | S -0.722 ± 0.11 | D -0.92 ± 0.36 | I 0.027 ± 0.12 | R -0.607 ± 0.13 | Y 0.49 ± 0.11 | N -0.785 ± 0.18 | C -1.03 ± 0.34 | Q -0.34 ± 0.11 | E -0.809 ± 0.2 | T -0.581 ± 0.086 | G 0.002 ± 0.18 | H -0.525 ± 0.11 | M -0.255 ± 0.16 | W 0.043 ± 0.12 | V 0.113 ± 0.068 | K -0.838 ± 0.23 | F 0.459 ± 0.07
E17: K -0.197 ± 0.097 | M -0.333 ± 0.14 | V -0.584 ± 0.14 | D -0.477 ± 0.28 | R -0.304 ± 0.075 | P -0.756 ± 0.082 | Q -0.557 ± 0.12 | H -0.737 ± 0.12 | S -0.428 ± 0.073 | G -0.772 ± 0.098 | I -0.591 ± 0.2 | C -0.589 ± 0.1 | A -0.598 ± 0.21 | F -0.515 ± 0.15 | Y -0.39 ± 0.11 | N -0.668 ± 0.12 | L -0.175 ± 0.092
E20: T -0.262 ± 0.077 | G -0.321 ± 0.13 | A 0.007 ± 0.093 | I -0.267 ± 0.091 | V -0.213 ± 0.13 | D -0.283 ± 0.12 | L -0.126 ± 0.073 | N -0.303 ± 0.15 | P -0.864 ± 0.14 | M -0.561 ± 0.15 | C -0.682 ± 0.2 | Y -0.506 ± 0.13 | S -0.366 ± 0.075 | W -0.613 ± 0.17 | H -0.499 ± 0.13 | F -0.54 ± 0.11
E3: G -0.475 ± 0.15 | N 0.993 ± 0.19 | P -0.466 ± 0.47 | D -0.006 ± 0.079 | T 0.741 ± 0.15 | V -0.151 ± 0.095 | L 0.135 ± 0.08 | S 0.173 ± 0.09 | K 0.566 ± 0.19 | Y 0.938 ± 0.43 | Q -0.357 ± 0.32 | R -0.147 ± 0.11 | M 0.132 ± 0.29 | W -0.873 ± 0.46
K21: M -0.763 ± 0.18 | C -0.683 ± 0.34 | F -0.504 ± 0.16 | R -0.381 ± 0.11 | G -0.842 ± 0.17 | L -0.483 ± 0.084 | Y -0.571 ± 0.17 | N -0.984 ± 0.35 | H -0.674 ± 0.17 | D -0.579 ± 0.21 | S -0.745 ± 0.083 | W -0.801 ± 0.11 | I -0.418 ± 0.22 | T -0.443 ± 0.12 | Q -0.685 ± 0.1 | P -0.804 ± 0.1 | E -0.867 ± 0.29 | V -0.444 ± 0.13
E16: M -0.608 ± 0.1 | C -0.725 ± 0.24 | D -0.572 ± 0.27 | I -0.693 ± 0.17 | N -0.632 ± 0.29 | P -0.621 ± 0.096 | V -0.589 ± 0.079 | K -0.359 ± 0.2 | Q 0.023 ± 0.08 | S -0.324 ± 0.095 | F -0.422 ± 0.16 | H -0.202 ± 0.079 | Y -0.185 ± 0.16 | W -0.504 ± 0.14 | R -0.427 ± 0.09 | A -0.119 ± 0.11 | T -0.686 ± 0.11 | L -0.557 ± 0.095 | G -0.907 ± 0.13

Reference: the Human Domainome abundance scans (Beltran et al. 2025)
